Tests used:
Assay type in all cases: cell-based
[1] = biological target: T1, hASIC1a N322A (Homo sapiens, UniProt P78348, N322A); assay: FACS binding to alanine mutant hASIC1a-eYFP on CHO-K1 cells; conditions: vs WT hASIC1a
T1 construct: expressed in transfected cells; host or cells: CHO-K1, transient
T1 sequence (P78348 1-528 N322A): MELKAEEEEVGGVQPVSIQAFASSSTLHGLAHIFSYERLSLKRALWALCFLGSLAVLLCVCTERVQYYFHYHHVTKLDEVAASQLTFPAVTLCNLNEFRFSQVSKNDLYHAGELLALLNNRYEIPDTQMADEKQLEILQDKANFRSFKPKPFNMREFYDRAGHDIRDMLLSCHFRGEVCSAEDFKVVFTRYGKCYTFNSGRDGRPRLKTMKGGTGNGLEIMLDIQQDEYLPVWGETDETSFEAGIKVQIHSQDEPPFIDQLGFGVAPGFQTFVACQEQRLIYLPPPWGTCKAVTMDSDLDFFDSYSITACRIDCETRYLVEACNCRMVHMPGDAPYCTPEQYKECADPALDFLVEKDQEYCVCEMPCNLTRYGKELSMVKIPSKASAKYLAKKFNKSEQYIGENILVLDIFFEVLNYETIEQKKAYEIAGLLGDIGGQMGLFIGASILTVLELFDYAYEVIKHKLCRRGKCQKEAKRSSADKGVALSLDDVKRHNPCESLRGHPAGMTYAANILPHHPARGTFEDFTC
Procedure: To confirm the role of these amino acids, alanine mutagenesis was performed and four amino acids are very important for antibody binding were identified. Plasmid encoding single amino acid mutation of hASIC1a-eYFP was constructed and transient transfected into CHO-K1 cells. FACS binding assay was then performed to test whether the ASC06-IgG1 still binds to cell surface expressing mutated hASIC1a.

[2] = biological target: T2, rASIC1a-eYFP (Rattus norvegicus, UniProt P55926); assay: Species/subtype selectivity, FACS binding and ICC, transfected CHO-K1 cells
T2 construct: expressed in transfected cells; host or cells: CHO-K1, transient
T2 sequence (P55926 1-526): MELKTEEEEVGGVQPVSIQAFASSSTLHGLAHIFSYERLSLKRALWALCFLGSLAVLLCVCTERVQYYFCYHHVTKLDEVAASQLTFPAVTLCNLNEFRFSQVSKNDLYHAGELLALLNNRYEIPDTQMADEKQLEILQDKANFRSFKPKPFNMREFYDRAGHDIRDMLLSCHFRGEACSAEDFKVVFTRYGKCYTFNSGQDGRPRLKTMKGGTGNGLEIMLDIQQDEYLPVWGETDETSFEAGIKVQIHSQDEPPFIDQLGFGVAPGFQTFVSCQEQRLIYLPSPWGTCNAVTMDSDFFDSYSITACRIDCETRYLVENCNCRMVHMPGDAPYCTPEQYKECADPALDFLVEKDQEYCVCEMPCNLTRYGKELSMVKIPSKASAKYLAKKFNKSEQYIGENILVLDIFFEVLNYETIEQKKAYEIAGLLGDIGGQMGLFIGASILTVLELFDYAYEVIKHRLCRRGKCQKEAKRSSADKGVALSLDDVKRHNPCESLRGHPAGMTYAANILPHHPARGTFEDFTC
Procedure: (§1) Cell Membrane Colocalization Studies Using Immunocytochemistry (ICC). Cells (CHO-K1) were seeded onto the poly-D-lysine-coated glass bottom 24-well plates at a concentration of 2×10^5 cells per mL. After 12 h of cultivation, the CHO-K1 cells were transfected with ASIC plasmids by Lipofectin 3000 reagent. Twenty-four hours after transfection, the cells were fixed in 4% paraformaldehyde and incubated for 30 min in a blocking solution (5% goat serum in PBS). The resulting cells were incubated with […] ASC06-IgG1 at 4° C. overnight followed by three PBS washes for 5 min each and incubation with the Alexa555-conjugated goat anti-human secondary antibody (Life Technology). After three additional PBS washes for 5 min each, the nuclei of the cells were stained with DAPI (#10236276001; Roche). The ICC analysis was performed on a laser scanning confocal microscopy (ZEISS LSM710) with a 63×N.A. 1.4 objective at 25° C. Images were collected on a 1,024×1,024-pixel EM-CCD camera. Data acquisition and analyses were performed with the ZEN 2012 professional software.
(§2) To test the species and subtype selectivity of ASC06-IgG1, vectors encoding human ASIC1b-eYFP fusion, rat ASIC1a-eYFP fusion, mouse ASIC1a-eYFP fusion, hASIC2a-eYFP fusion, hASIC2b-eYFP fusion, and hASIC3a-eYFP fusion were constructed. The CHO-K1 cells were transiently transfected with these plasmids. FACS binding assay and immunocytochemistry (ICC) were carried out to determine if ASC06-IgG1 is able to bind to the cell surface-expressed ASIC homologs and isotypes.

[3] = biological target: T3, hASIC1a-eYFP (Homo sapiens, UniProt P78348); assay: as above; set-up: overexpress the full-length hASIC1a (1-528 amino acids) protein fused with eYFP; expressed in transfected cells; host or cells: CHO-K1, transient
T3 sequence (P78348 1-528): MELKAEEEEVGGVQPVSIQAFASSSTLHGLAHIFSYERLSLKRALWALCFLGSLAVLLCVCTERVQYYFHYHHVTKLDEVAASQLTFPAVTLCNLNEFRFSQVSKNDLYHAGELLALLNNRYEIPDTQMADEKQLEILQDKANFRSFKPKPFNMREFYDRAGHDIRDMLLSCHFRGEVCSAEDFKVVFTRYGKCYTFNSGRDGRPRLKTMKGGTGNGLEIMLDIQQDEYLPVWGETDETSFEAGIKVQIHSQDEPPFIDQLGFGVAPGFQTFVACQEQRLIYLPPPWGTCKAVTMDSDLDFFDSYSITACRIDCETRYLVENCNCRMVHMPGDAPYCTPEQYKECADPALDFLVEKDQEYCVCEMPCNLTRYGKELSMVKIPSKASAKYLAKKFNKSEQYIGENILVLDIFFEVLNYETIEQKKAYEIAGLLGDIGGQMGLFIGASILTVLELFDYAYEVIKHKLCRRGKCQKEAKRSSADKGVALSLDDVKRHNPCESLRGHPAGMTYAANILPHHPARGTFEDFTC
Procedure: as §1, with “Data acquisition and analyses were performed with the ZEN 2012 professional software.” left out
as §2, with “The CHO-K1 cells were transiently transfected with these plasmids.” left out

B1: ASC06-IgG1: ASC06 antibody converted into a full length IgG1 form (antibody, V domains shown)
VH: QVQLQQSGGGLVQPGGSLRLSCAASGFTFSSYAMSWVRQAPGKGLEWVSAISGSGGSTYYADSVKGRFTISRDNSKNTLYLQMNSLRAEDTAVYYCAKDSFYGYSKGDWGQGTLVTVSS
VL: QSALTQPASVSGSPGQSITISCTGTSSDVGAYNYVSWYQQQPGKAPKLMIYGVSNRPSGVSNRFSGSKSGNAASLTISGLQAEDEADYYCSSYTSSSTYVFGTGTKLTVLG
binding to hASIC1a N322A mutation [1]: decrease | FACS recognition of rat ASIC1a ([2]; FACS): recognized | ICC membrane co-localization with rASIC1a-eYFP ([2]; ICC staining): membrane co-localization | FACS recognition of human ASIC1a ([3]; FACS): recognized | ICC membrane co-localization with hASIC1a-eYFP ([3]; ICC staining): membrane co-localization

Reference: patent US12692310B2, “ASIC1 channel antagonist antibody” (ShanghaiTech University, priority 2019, dated 2026)
